One assay concerns the target T1, human OT-R (Homo sapiens, UniProt P30559).
T1 construct: expressed in transfected cells; host or cells: HEK293, stably transfected
T1 sequence (P30559 1-389): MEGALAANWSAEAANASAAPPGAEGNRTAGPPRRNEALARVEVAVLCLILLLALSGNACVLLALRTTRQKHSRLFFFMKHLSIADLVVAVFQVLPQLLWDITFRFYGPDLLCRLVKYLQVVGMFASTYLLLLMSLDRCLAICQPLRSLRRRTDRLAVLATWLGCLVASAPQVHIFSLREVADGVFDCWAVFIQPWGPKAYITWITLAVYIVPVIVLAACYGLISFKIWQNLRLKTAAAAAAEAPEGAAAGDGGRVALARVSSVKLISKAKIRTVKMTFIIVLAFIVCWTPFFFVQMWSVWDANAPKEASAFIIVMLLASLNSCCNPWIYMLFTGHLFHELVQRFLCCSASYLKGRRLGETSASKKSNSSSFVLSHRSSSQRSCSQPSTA
Put plainly: In vitro oxytocin receptor activation assay (intracellular Ca2+ mobilization, Fluo-4). Format: cell-based. The following applies: HEK293 cells expressing human OT-R; ATP 10^-4 M as positive control; IgG applied without OT. (In general: A change in cytosolic calcium serves as a functional read-out for many receptors and channels.)

For assay [1], the target named is green-fluorescence protein (GFP)-labeled human OT-R in HEK293 cells (human) (UniProt P30559).
The target in assay [2] is human oxytocin receptor, stably transfected in HEK293 cells (human) (UniProt P30559).

Sequence of oxytocin (P01178 whole entry, looked up): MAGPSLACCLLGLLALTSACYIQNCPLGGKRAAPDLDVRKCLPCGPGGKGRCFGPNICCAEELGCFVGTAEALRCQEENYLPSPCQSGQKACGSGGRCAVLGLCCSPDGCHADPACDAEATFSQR

Turning to `Nc1ncnc2c1ncn2[C@@H]1O[C@H](COP(=O)(O)OP(=O)(O)OP(=O)(O)O)[C@@H](O)[C@H]1O` [ATP, adenosine triphosphate], on human OT-R, the “intracellular Ca2+ mobilization (result in words)” value is reported as “mild increase”.

Regarding “oxytocin (from UniProt P01178 20-28) (peptide)”, in assay [1], the half-time internalization rate of GFP-labeled OT-R (membrane/cytoplasmic fluorescence, exponential decay model), OT alone is 16.7 min; the half-time internalization rate of GFP-labeled OT-R (membrane/cytoplasmic fluorescence, exponential decay model), OT in immune complex with plasma IgG of aggressors is 23.3 min; the half-time internalization rate of GFP-labeled OT-R (membrane/cytoplasmic fluorescence, exponential decay model), OT in immune complex with plasma IgG of controls stood at 6.4 min. Moreover, in assay [2], the EC50 of Ca2+ release in OT-R expressing cells, OT dose-response with OT preincubated with plasma IgG of aggressors (OT/IgG IC, fixed IgG 840 nM) came to 6.1 nM; the EC50 of Ca2+ release in OT-R expressing cells, OT dose-response with OT preincubated with plasma IgG of controls (OT/IgG IC, fixed IgG 840 nM) was 3.1 nM; the intracellular Ca2+ mobilization in HEK293 cells stably transfected with human OT-R, OT alone at 10^-7 M (fold over basal levels) stood at 3.5.
